Source: patent US9957295B2, “Peptides inhibiting cold-inducible RNA binding protein activity” (The Feinstein Institute for Medical Research, priority 2013, dated 2018)

Test system: THP-1 cells
Assay: TNF-α release from differentiated THP-1 cells stimulated with recombinant proteins
Type: cell-based, human
Conditions: 0.3 μg/ml each protein, 8 h, ELISA
Experimental: As with the murine model, the stimulation of TNF-α, release by rCIRP in a human model was studied. […] These experiments were conducted by incubating differentiated human THP-1 cells with rhCIRP or rmCIRP at the indicated concentrations for 4 h. *P<0.05 vs. no CIRP. Similarly, human PBMC were incubated with the indicated concentrations of rhCIRP for 8 h. *P<0.05 vs. no rhCIRP. Thus, stimulation of cytokine release by CIRP was not attributable to LPS contamination. Furthermore, CIRP-induced cytokine activation was conserved between rodents and humans.
rmCIRP induced TNF-α and HMGB1 release in macrophages (FIGS. 10a, b and c). It was reported that HMGB1 can also stimulate TNF-α release (Andersson, U., et al. High mobility group 1 protein (HMG-1) stimulates proinflammatory cytokine synthesis in human monocytes. J. Exp. Med. 192, 565-570 (2000)). The relationship between CIRP and HMGB1 on stimulating TNF-α release was analyzed by applying respective neutralizing antibodies. […] After 4 h, TNF-α levels in conditioned medium (CM) were assayed by ELISA. Data are mean±s.e.m. from three independent experiments. *P<0.05 vs. rmCIRP+ control IgG. In FIG. 16D, RAW 264.7 cells were pre-incubated with rabbit control IgG or anti-CIRP antibodies at indicated dilutions of 1 mg/ml for 20 min before adding 1.0 μg/ml rmCIRP. After 4 h, TNF-α levels in CM were assayed by ELISA. Data are mean±s.e.m. from three independent experiments. *P<0.05 vs. rmCIRP+ control IgG. THP-1 cells were incubated with 4 μg/ml of anti-CIRP antibodies, anti-HMGB1 antibodies, or non-immunized control IgG for 1 h prior to adding rmCIRP (0.3 μg/ml), rmHMGB1 (0.3 μg/ml), or rmCIRP/rmHMGB1 (0.3 μg/ml, 0.3 μg/ml) for 8 h. *P<0.05 vs. rmCIRP; #P<0.05 vs. rmHMGB1. […] Furthermore, rmCIRP, rmHMGB1, and rmCIRP plus rmHMGB1 induced TNF-α levels of 0.8, 0.6, and 1.6 ng/ml, respectively. […] TNF-α levels in all collected CM were assayed by ELISA. Data are mean±s.e.m. from three or four independent experiments.
Murine macrophage-like RAW 264.7 cells and human monocyte THP-1 cells were obtained from ATCC (Manassas, Va.). […]

B1: rmCIRP: recombinant murine (rat sequence) His-tagged CIRP expressed in E. coli (protein)
chain: MASDEGKLFVGGLSFDTNEQALEQVFSKYGQISEVVVVKDRETQRSRGFGFVTFENIDDAKDAMMAMNGKSVDGRQIRVDQAGKSSDNRSRGYRGGSAGGRGFFRGGRSRGRGFSRGGGDRGYGGGRFESRSGGYGGSRDYYASRSQGGSYGYRSSGGSYRDSYDSYATHNEHHHHHH
  induced TNF-α levels: 0.8 ng/mL
